Laboratory results published in article PMC5458386, “Crystal structures of human Fabs targeting the Bexsero meningococcal vaccine antigen NHBA” (Acta Crystallographica. Section F, Structural Biology …, 2017).

Target: T1, Neisserial heparin-binding antigen (NHBA) peptide 20 (Neisseria meningitidis strain 2996, UniProt Q9JPP1 18-427)
T1 construct: NHBA variant p20 (short variant) of N. meningitidis strain 2996, UniProt Q9JPP1; also called NHBA p20; NHBAp20
T1 sequence: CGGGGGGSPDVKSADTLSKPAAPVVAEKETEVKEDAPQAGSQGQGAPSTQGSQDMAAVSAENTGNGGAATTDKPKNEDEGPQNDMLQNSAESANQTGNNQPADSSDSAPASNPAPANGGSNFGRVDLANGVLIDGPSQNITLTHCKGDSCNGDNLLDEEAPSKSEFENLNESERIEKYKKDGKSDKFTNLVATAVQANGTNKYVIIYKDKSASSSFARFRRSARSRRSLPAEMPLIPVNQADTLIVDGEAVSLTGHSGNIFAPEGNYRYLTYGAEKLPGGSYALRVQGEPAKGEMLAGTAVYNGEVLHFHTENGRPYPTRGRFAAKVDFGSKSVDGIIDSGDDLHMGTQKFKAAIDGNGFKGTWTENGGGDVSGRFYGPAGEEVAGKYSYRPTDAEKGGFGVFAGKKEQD
Assay: SPR; Biacore T200, 25 °C; Fab (800-1100 RU) captured by anti-Fab mAbs (Human Fab Capture Kit) on a CM5 chip; NHBA injected, single-cycle kinetics, five injections 6.25-100 nM, 30 µl/min; HBS-EP (10 mM HEPES, 150 mM NaCl, 3 mM EDTA, 0.05% P20, pH 7.4); 1:1 Langmuir model with mass-transfer term; duplicate
Conditions: both partners purified

B1: Fab 12E1 (Fab, V domains shown)
VH: QVQLVQSGAEVKKPGASVKVSCKASGYIFTSHPIHWVRQAPGQRPEWMGWINAGNGNTKYSQKFQDRVNLTRDTSASTVFMELINLRFEDTAIYYCIRETKFDPWGQGTLVTVSS
VL: EIVLTQSPLSLPVTLGQPASISCRSSQDLVYRDGITYLNWFQQRPGQSPRRLIYKVSNRDSGVPDRFSGSGSGTDFTLRISRVEAEDIGVYYCMQGTHWPITFGQGTRLEIKR
notes: heavy chain of Fab 12E1 (human VH, human IgG1 CH1) as left after TEV cleavage; light chain of Fab 12E1; Fab cloned from a human monoclonal antibody of a Bexsero vaccinee; also called anti-NHBA human Fab 12E1; source: Expi293 cells, transient transfection, purified from supernatant (StrepTrap HP, TEV cleavage, Superdex 200); not shown: double Strep-tag II, C-terminal, cleaved
  Kd: 6.2 nM
  koff: 0.0003 s⁻¹
  kon: 49000 M⁻¹ s⁻¹
